# In patent publication US20220177578A1 (MAGENTA THERAPEUTICS, published 2022):
# B1: Antibody 67 (Ab67), human anti-CD117 antibody (antibody, V domains shown)
# VH: EVQLVESGGGLVQPGGSLRLSCAASGFTFSDADMDWVRQAPGKGLEWVGRTRNKAGSYTTEYAASVKGRFTISRDDSKNSLYLQMNSLKTEDTAVYYCAREPKYWIDFDLWGRGTLVTVSS
# VL: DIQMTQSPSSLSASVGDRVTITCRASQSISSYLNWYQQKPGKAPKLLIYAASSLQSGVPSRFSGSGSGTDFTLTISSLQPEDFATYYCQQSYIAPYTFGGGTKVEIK
# notes: also called Antibody HC-67/LC-67
# Molecular target: T1, Human CD117 antigen (recombinant CD117 ectodomain) (human, UniProt P10721 26-520)
# T1 construct: also called c-kit; ectodomain of human CD117
# Experiment: chemical cross-linking, High-Mass MALDI MS and nLC-Orbitrap MS of the CD117/Ab67 complex
# Experimental: A sample of Ab67 was diluted in distilled water to a concentration of 2.7 mg/mL. 1 μL of the diluted Ab67 was then mixed with 1 μL of a matrix composed of a re-crystallized sinapinic acid matrix (10 mg/mL) in acetonitrile/water (1:1, v/v), TFA (0.1% (K200 MALDI Kit). The mixture was submitted to cross-linking using CovalX's K200 MALDI MS analysis kit. The protein solutions were mixed with 1 μl of K200 Stabilizer reagent (2 mg/ml) and incubated at room temperature. After the incubation time (180 minutes) the samples were prepared for MALDI analysis. The samples were analyzed by High-Mass MALDI MS immediately after crystallization at room temperature.
# After digestion, formic acid 1% final was added to the solution. After proteolysis, 10 ul of the peptide solution generated by proteolysis were loaded onto a nano-liquid chromatography system (Ultimate 3000-RSLC). The cross-linked peptides were analyzed using Xquest version 2.0 and Stavrox 3.6. software. nLC-LTQ-Orbitrap MS/MS analysis using a nLC Ultimate 3000-RSLC system in line with a LTQ-Orbitrap mass spectrometer (Thermo Scientific) was performed.
# T1 sequence (P10721 other isoform, or with tags, fused parts or gaps): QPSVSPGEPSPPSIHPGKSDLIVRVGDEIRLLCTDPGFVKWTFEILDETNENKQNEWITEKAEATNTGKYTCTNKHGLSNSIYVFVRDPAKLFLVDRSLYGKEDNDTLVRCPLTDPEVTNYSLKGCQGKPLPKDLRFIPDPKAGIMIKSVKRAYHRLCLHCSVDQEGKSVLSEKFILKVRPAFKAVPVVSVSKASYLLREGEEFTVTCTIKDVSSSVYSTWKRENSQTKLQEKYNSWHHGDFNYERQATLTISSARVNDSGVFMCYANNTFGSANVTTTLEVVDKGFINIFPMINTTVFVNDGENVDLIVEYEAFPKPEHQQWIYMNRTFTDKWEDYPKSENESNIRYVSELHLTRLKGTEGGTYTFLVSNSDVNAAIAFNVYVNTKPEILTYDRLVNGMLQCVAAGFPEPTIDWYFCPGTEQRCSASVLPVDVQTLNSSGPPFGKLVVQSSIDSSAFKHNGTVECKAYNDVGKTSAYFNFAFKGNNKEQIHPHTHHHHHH
binder,measurement,value
B1,binding result,binds
